Where a chain is given by its changes, count along the chain named.
Tests used:
[1] = target: T1, Fur (Mycobacterium smegmatis mc2155) (UniProt A0QXX6); assay: EMSA; details: 20 mM Tris HCl pH 8.0, 1 mM DTT, 50 mM KCl, 5 mM MgCl2, 20 ul, 30 min at 30 C
T1 sequence: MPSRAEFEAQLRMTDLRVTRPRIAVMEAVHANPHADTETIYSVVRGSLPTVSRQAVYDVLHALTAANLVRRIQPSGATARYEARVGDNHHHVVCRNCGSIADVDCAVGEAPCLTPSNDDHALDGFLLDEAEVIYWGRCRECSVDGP

[2] = target: T2, mFur (A28V Fur) A28V (Mycobacterium smegmatis mc251) (UniProt A0QXX6); assay: EMSA; details: 20 mM Tris HCl pH 8.0, 1 mM DTT, 50 mM KCl, 5 mM MgCl2, 20 ul, 30 min at 30 C
T2 sequence: T1 sequence with A28V

Sequence: CATCCGCAGTTGGGCTTCGAACTCCGCCCGAGAGGGCATGCCGCCCACCTTGCTCGCCCGATTGGACGCAGTCAAGTCTTTCTCGAATTCGGTATGTCGGTGCATGTCTCGCTCCGATCTGGGAGCTCGGATGGGAGGCGCAAGAGCGAGCCGCGTTCGGCCATTGTCGGCCGACCGCTTCTGCGCGCAGGCTTGCTGCGGCGGTTACCCCGATGTGCCCGACGCTATACCTCCAGCCGAAGAAATTTCTTGCAATGGTTGTTTTCCAACG (double strand) [fur promoter DNA fragment]
- binding [1]: binds
- binding [2]: binds more weakly
